Assay [1] deals with aggregated Aβ42 (heterogeneous Aβ 42 aggregate mixture). Kind of assay: competition ELISA; FIG 5A; competition with HBP biotin. A general note: ELISA stands for enzyme-linked immunosorbent assay.
The target is the same in assay [2]. Kind of assay: competition ELISA; FIG 20A.
Assay [3] shares this target. Kind of assay: competition ELISA; FIG 20B.
Assay [4] shares this target. Kind of assay: competition ELISA; FIG 5B; competition with HBP biotin.

Drawing on US20230331828A1 (published 2023), this text covers IC50 for four molecules.

Sequence of aggregated Aβ42 (heterogeneous Aβ 42 aggregate mixture) (P05067 672-713): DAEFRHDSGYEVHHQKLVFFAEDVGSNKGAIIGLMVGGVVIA

B1: h2731 (antibody, V domains shown)
VH: EVQLLESGGGLVQPGGSLRLSCAASGFTFSNYGMSWVRQAPGKGLEWVASIRSGSGRTYYSDNVKGRFTISRDNSKNTLYLQMNSLRAEDTAVYYCVRYDHYSGSSDYWGQGTLVTVSS
VL: DVVMTQSPLSLPVTLGEPASISCKSSQSLLDYDGKTYLNWLLQKPGQSPQRLIYRVTNRDTGVPDRFSGSGSGTDFTLKISRVEAEDVGVYYCWQGTHFPRSFGQGTKVEIK
As to B1, the concentration for half-maximal inhibition (IC50) (in general, the midpoint of a concentration-inhibition curve) was found to be 4.76 µg/mL in assay [1] and 5 µg/mL in assay [2].

B2: h2931 (antibody, V domains shown)
VH: EVQLLESGGGLVQPGGSLRLSCAASGFTFSNFGMSWVRQAPGKGLEWVASVRSGSGRTYYSDNVKGRFTISRDNSKNTLYLQMNSLRAEDTAVYYCVRYDHYTGTSDYWGQGTLVTVSS
VL: DVVMTQSPLSLPVTLGEPASISCKSSQSLLDYDGKTYLNWLLQKPGQSPQRLIYRVTNRDTGVPDRFSGSGSGTDFTLKISRVEAEDVGVYYCWQGTHFPRSFGQGTKVEIK
On to B2, for which the concentration for half-maximal inhibition (IC50) in assay [1] stood at 6.27 µg/mL.

B3: h2831 (antibody, V domains shown)
VH: EVQLLESGGGLVQPGGSLRLSCAASGFTFSNFGMSWVRQAPGKGLEWVASVRSGSGRTYYSDNVKGRFTISRDNSKNTLYLQMNSLRAEDTAVYYCVRYDHYSGTSDYWGQGTLVTVSS
VL: DVVMTQSPLSLPVTLGEPASISCKSSQSLLDYDGKTYLNWLLQKPGQSPQRLIYRVTNRDTGVPDRFSGSGSGTDFTLKISRVEAEDVGVYYCWQGTHFPRSFGQGTKVEIK
As for B3, the IC50 in assay [3] was determined as 9.9 µg/mL; in assay [4], 9.02 µg/mL.

B4: h2726 (antibody, V domains shown)
VH: EVQLLESGGGLVQPGGSLRLSCAASGFTFSNYGMSWVRQAPGKGLEWVASIRSGSGRTYYSDNVKGRFTISRDNSKNTLYLQMNSLRAEDTAVYYCVRYDHYSGSSDYWGQGTLVTVSS
VL: DVVMTQSPLSLPVTPGEPASISCKSSQSLLDYDGKTYLNWLLQKPGQSPQRLIYKVSNRDSGVPDRFSGSGSGTDFTLKISRVEAEDVGVYYCWQGTHFPRTFGQGTKVEIK
Consider B4, for which the IC50 in assay [3] was found to be 9 µg/mL; in assay [4], 8.41 µg/mL.
